We go through nine molecules from PMC9942873.

Assay [1] deals with Pfs48/45 in its native configuration on the female gamete surface membrane (Plasmodium falciparum NF54 (endogenous in gametes)).
For assay [2] the target is unchanged. The source holds these as a separate data set.
Assay [3] has as its target Pfs48/45 6C.mAgE1 (K416N; C terminal 6x HIS tag) (Plasmodium falciparum). Briefly: BLI.
Assay [4] deals with Pfs48/45 6C.mAgE1 (D320H; C terminal 6x HIS tag) (Plasmodium falciparum). Description: BLI. On the technique in general: Biolayer interferometry detects binding as a change in optical thickness at a sensor tip.
For assay [5], the target named is Pfs48/45 6C.mAgE1 (L314I; C terminal 6x HIS tag) (Plasmodium falciparum). Briefly: BLI.
Assay [6] concerns the target Pfs48/45 6C.mAgE1 (S322N; C terminal 6x HIS tag) (Plasmodium falciparum). Description: BLI.

Read-outs that look alike come from different tables or passages of the source. Some results are limits rather than exact numbers.

B1: RUPA-160 (hIgG1) (antibody, V domains shown)
VH: QVQLVQSGAEVKKPGASVKASCKASGYTFDNFDIIWARQATGQGLEWMGWMNPNTGKKGYAQNLKDRVTMTRDSSISTAYLELSSLRSEDTAVYYCVRAVGSYYGSGGWFDPWGQGTLVTVSS
VL: QSVLTQPPSASGTPGQRVTIACSGSSSNIGGNNVKWYQQLPGTAPKLVIYNNDERPPGVPDRVSGSKSGTSASLAISGVQSEDEADYYCATWDDSMKREVFGGGTKLTVL
B1: the other in assay [1] was 80 % TRA.

B2: RUPA-47 (Fab) (Fab, V domains shown)
VH: QVQLVQSGAEVKKPGASVKLSCTASGYTFTNFGITWVRQAPGQGLEWMAWISVYSGDTDYAQRFQGRVTMTTDTSTRTAYMEMRSLSFDDTAVYYCVRGGRDSPILGGYWGQGTLVTVSS
VL: EIVLTQSPGTLSLSPGERVTLSCRASQSVRSMYLAWYQQKPGQAPRLLIHGASIRATGIPDRFSGSGSGTDFTLTISRLEREDFAVYYCHQYGSSPLTFGGGTKVESK
Regarding B2, in assay [2], the other came out at 100 % TRA.

B3: RUPA-29 (hIgG1) (antibody, V domains shown)
VH: QVHLVESGGGVVQPGRSLRLSCAASGFTFRSYGMHWVRLAPGKGLEWVTAIWYDGSKKHFADSVKGRFTISRDNSKNTLYLQMSSLRVEDTAVYYCARDFAHGAFYPVDWGRGTLVTVSS
VL: SYELTQPPSVSVSPGQTARITCSGDALPKKHAYWYQQKSGQAPVLVIYDDSKRPSGIPERFSGSSSGTMATLSISGAQVEDEAAYYCYSSDTSANYWVFGGGTKLTVL
In turn, B3 returned an other in assay [1] greater than 80 % TRA.

B4: RUPA-29 (Fab) (Fab, V domains shown)
VH: QVHLVESGGGVVQPGRSLRLSCAASGFTFRSYGMHWVRLAPGKGLEWVTAIWYDGSKKHFADSVKGRFTISRDNSKNTLYLQMSSLRVEDTAVYYCARDFAHGAFYPVDWGRGTLVTVSS
VL: SYELTQPPSVSVSPGQTARITCSGDALPKKHAYWYQQKSGQAPVLVIYDDSKRPSGIPERFSGSSSGTMATLSISGAQVEDEAAYYCYSSDTSANYWVFGGGTKLTVL
Broadly, the Kd is the constant that tells how readily two partners part at equilibrium. Read a low Kd as tighter binding. For the molecule B4, in assay [3], the Kd is 109 nM.

B5: RUPA-54 (hIgG1) (antibody, V domains shown)
VH: QVQLVESGGGVVQPGRSLRLSCTASGFTFRSYGIHWVRQAPGKGLQWVAFISYDGRNKYYADSVKGRFTISRDNSKNTLYLQMSGLRADDTAVYYCAKDSDNDCTATSCYTVSWGQGTLVTVSS
VL: SYELTQPPSVSVSPGQTARITCSGDALPKKYAYWYQQKSGQAPVLVIYEDKKRPSGIPERFSGSSSGTMATLTISGAQVEDEADYYCYSTDSRTDHGGIFGGGTKLTVL
In turn, B5 returned an other in assay [1] greater than 80 % TRA.

B6: RUPA-100 (hIgG1) (antibody, V domains shown)
VH: QVQLVESGGGVVQPGRSLRLSCAASGFSFSHYGMHWVRQAPGKGLEWVAVISYDGNYKYYGDSVKGRFTISRDNFKNTLYLQMNSLRPEDTAVYYCAKGKAHSCVSTSCYTDFWGQGTLVTVPS
VL: SYELTQPPSVSVSPGQTARITCSGDALPKKYAYWYQQKSGQAPVLVIYEDSKRPSGIPERFSGSSSGTMATLTISGAQVEDEGDYYCYSTDSSYNHRGVFGGGTKLTVL
As for B6, the other in assay [1] is greater than 80 % TRA.

B7: RUPA-44 (Fab) (Fab, V domains shown)
VH: QLQLQESGPGLVKPSETLSLTCTVSGGSISRSPYYWGWIRQPPGKGLEWFGSIYNNGSTYYNPPLKSRLTISVDTSKNQFSLKLSSVTAADTAVYYCARHGGSTGMKVVVIAPPDYWGQGTLVTVSS
VL: DIQMTQSPATLSASVGDRVTITCRASQSISSWLAWYQQKPGEAPKLLIYKASSLQSGVPSRFSGSGSGTKFSLTISSLQPDDFATFYCQQYHSYPYTFGQGTKLEIK
Take B7: the equilibrium dissociation constant (Kd) in assay [4], in assay [3], in assay [5] and in assay [6] was less than 20 nM each time.

B8: RUPA-117 (Fab) (Fab, V domains shown)
VH: QLQLQESGPGLVKPSETLSLTCTVSGGSISRSPYYWGWIRQPPGKGLEWFGSVYNNGSTYYNPSLKSRVTISVDTSKNQFSLKLSSVTAADTALYYCARHGGSTGMKVVVIAPPDYWGQGTLVTVSS
VL: DIQMTQSPATLSASVGDRVTITCRASQSISIWLAWYQQKPGEAPKLLIYKASSLQSGVPSRFSGSASGTKFSLTISSLQPDDFATFYCQQYHSYPYTFGQGTKLEIK
In the case of B8, the Kd in assay [4], in assay [3], in assay [5] and in assay [6] was less than 20 nM in each case.

B9: RUPA-50 (hIgG1) (antibody, V domains shown)
VH: QVHLVESGGGVVQPGRSLRLSCAASGFTFRSYGMHWVRRVPGKGLEWVATISYDETFKDYPDSVKGRFTISRDNSKNTLFLQMNSLRPADTAVYYCAKDRAHSMHYFEYWGRGTLVTVSS
VL: SYELTQPPSVSVSPGQTARLTCSGDALPKKFAYWYQLKSGQAPVLVIYEDSKRPSGIPERFSGSSSGTTATLTISGAQVEDEADYYCYSRDGSGDQKNIFGGGTKLTVL
Turning to B9, the other in assay [1] is greater than 80 % TRA.
